Patent US7041806

What was measured:
[1] = molecular target: UNC5H-2 (rat homologue of UNC-5) (rat) (UniProt O08722); experiment: equilibrium binding, curves fitted to the Hill equation
[2] = molecular target: UNC5H-1 (rat homologue of UNC-5) (rat) (UniProt O08721); experiment: as above
Chain of UniProt O08721 (O08721 26-898 limits assumed, form in doubt): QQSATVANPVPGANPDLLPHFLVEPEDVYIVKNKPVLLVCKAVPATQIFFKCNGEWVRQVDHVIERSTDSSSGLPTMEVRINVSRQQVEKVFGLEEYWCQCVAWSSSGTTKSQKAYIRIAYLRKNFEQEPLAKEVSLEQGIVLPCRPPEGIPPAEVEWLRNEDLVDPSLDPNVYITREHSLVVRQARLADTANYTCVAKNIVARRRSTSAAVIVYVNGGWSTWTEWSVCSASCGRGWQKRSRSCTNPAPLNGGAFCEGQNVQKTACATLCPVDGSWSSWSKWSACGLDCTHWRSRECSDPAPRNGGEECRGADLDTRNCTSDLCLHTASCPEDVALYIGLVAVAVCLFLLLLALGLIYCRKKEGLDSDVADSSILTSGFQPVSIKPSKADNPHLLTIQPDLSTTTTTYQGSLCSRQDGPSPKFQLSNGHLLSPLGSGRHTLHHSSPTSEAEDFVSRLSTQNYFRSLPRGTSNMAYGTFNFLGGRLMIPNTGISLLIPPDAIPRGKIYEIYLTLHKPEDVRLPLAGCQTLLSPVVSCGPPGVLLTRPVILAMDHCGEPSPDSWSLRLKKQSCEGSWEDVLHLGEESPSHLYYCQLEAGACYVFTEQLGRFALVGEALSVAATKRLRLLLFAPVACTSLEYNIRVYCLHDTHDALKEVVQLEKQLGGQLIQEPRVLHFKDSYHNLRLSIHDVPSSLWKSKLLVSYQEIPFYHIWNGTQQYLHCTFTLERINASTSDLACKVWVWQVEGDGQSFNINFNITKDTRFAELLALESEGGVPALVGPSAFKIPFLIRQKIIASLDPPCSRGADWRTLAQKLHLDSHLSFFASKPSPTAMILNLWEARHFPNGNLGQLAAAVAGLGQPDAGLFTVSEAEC

Substance: netrin(VIoV)-Fc (Fc fusion)
- Kd [1]: 3.4 nM
- Kd [2]: 19 nM
